Assay results as given in US20240318215A1.

What was measured:
[1] = target: pMag fused to C-terminal part of split T7 RNA polymerase, as carried on the pT7-Opto plasmid; experiment: cell-based or functional assay
[2] = target: pMag (F1) fused to second half of 563 T7RNAP non-star variant; experiment: cell-based or functional assay
Chain of pMag (F1) fused to second half of 563 T7RNAP non-star variant (chain, as listed by the source mutant limits assumed): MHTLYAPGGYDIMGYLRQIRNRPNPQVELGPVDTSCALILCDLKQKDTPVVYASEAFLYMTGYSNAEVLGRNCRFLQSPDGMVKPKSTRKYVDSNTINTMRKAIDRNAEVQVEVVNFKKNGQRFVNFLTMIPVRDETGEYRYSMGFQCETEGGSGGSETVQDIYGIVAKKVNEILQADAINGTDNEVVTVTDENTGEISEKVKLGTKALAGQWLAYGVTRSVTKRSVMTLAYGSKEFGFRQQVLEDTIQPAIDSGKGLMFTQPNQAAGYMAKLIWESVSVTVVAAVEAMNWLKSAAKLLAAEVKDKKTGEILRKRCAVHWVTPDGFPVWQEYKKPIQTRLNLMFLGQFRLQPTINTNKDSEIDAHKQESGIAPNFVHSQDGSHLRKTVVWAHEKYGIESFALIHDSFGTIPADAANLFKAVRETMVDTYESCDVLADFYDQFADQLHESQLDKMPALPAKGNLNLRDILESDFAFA

Chain of pMag fused to C-terminal part of split T7 RNA polymerase, as carried on the pT7-Opto plasmid (chain, as listed by the source limits assumed): as the sequence (chain, as listed by the source mutant limits assumed) above, with R225S counted along it

average pixel intensity (16-bit fluorescence scan) of the blue-light-exposed region of the pT7-Opto pellicle (pixel intensity (16-bit)) [1]: 10400 | average pixel intensity (16-bit fluorescence scan) of the unexposed region of the pT7-Opto pellicle (pixel intensity (16-bit)) [1]: 5520 | average red fluorescence of the light-exposed against the unexposed area of a K. rhaeticus pT7-Opto pellicle, fluorescence scan, 0.1% arabinose [1]: 1.8 fold | change in mCherry blue light response from dark to bright, flow cytometry, 96-well plate, 0.1% (w/v) arabinose [1]: 2.57 fold | change in mCherry blue light response from dark to bright, flow cytometry, 96-well plate, no arabinose [1]: 2.57 fold | fold change of mCherry between dark and light states, flow cytometry, 96-well plate, 1% (w/v) arabinose [1]: 1.33 fold | fold change of mCherry between dark and light states, flow cytometry, 96-well plate, 10% (w/v) arabinose [1]: 1.04 fold | mCherry expression, blue light against dark culture, flow cytometry, K. rhaeticus pT7-Opto, 0.1% arabinose [1]: 7.5 fold | increase of Tyr1 production (initial rate of melanin production, OD405) in blue light, strain Opto-T7RNAP(563-F1) with pT7 tyr1, 1 mg/mL arabinose [2]: 5.35 fold | increase of mCherry production in response to blue light, plate reader, strain Opto-T7RNAP(563-F1) with pT7 mCherry, 10 mg/mL arabinose [2]: 7.4 fold
B1: N-terminal part of split T7 RNA polymerase (563 split) fused to nMag (protein)
chain: MNTINIAKNDFSDIELAAIPFNTLADHYGERLAREQLALEHESYEMGEARFRKMFERQLKAGEVADNAAAKPLITTLLPKMIARINDWFEEVKAKRGKRPTAFQFLQEIKPEAVAYITIKTTLACLTSADNTTVQAVASAIGRAIEDEARFGRIRDLEAKHFKKNVEEQLNKRVGHVYKKAFMQVVEADMLSKGLLGGEAWSSWHKEDSIHVGVRCIEMLIESTGMVSLHRQNAGVVGQDSETIELAPEYAEAIATRAGALAGISPMFQPCVVPPKPWTGITGGGYWANGRRPLALVRTHSKKALMRYEDVYMPEVYKAINIAQNTAWKINKKVLAVANVITKWKHCPVEDIPAIEREELPMKPEDIDMNPEALTAWKRAAAAVYRKDKARKSRRISLEFMLEQANKFANHKAIWFPYNMDWRGRVYAVSMFNPQGNDMTKGLLTLAKGKPIGKEGYYWLKIHGANCAGVDKVPFPERIKFIEENHENIMACAKSPLENTWWAEQDSPFCFLAFCFEYAGVQHHGLSYNCSLPLAFDGSCSGIQHFSAMLRDEVGGRAVNLLPGGSGGHTLYAPGGYDIMGYLDQIGNRPNPQVELGPVDTSCALILCDLKQKDTPIVYASEAFLYMTGYSNAEVLGRNCRFLQSPDGMVKPKSTRKYVDSNTINTIRKAIDRNAEVQVEVVNFKKNGQRFVNFLTIIPVRDETGEYRYSMGFQCETE
